Consider four molecules from article PMC7904446 (Cell Host & Microbe, 2021).

For this assay, the target named is recombinant SARS-CoV-2 spike protein receptor binding domain (RBD) (SARS-CoV-2, UniProt P0DTC2, biotin (the listed product is biotinylated)). Kind of assay: SPR.

B1: ZDY20 Fab (Fab, V domains shown)
VH: EVQLVETGGGLIQPGGSLRLSCAASGITVSSNYMSWVRQAPGKGLEWVSVIYSGGSTYYADSVKGRFTISRDNSKNTLYLQMNSLRAEDTAVYYCAREGLGDGYNAIAGLGFDLWGRGTLVTVSS
VL: DIVMTQSPSSLSASVGDSVTITCQASQDINNYLNWYQQKPGRAPELLINDASNLEAGVPSRFSGSGSGTDFTLTISSLQTEDFATYYCQQYGSLPYTFGQGTKLDIR
As a reminder, the Kd is a measure of binding affinity in units of concentration. As for B1, the dissociation constant Kd came to 74.9 nM.

B2: ZDY28 Fab (Fab, V domains shown)
VH: EVQLVQSGGGVVQPGRSLRLSCAASGFTFSSYGMHWVRQAPGKGLEWVAVISYDGSNKYYADSVKGRFTISRDNSKNTLYLQMNSLRAEDTAVYYCASRSTVVPAAIFAFDIWGQGTMVTVSS
VL: not shown
For B2, the dissociation constant (Kd) worked out at 19.2 nM.

B3: ZDY49 Fab (Fab, V domains shown)
VH: EVQLVESGGGVVQPGRSLRLSCAASGFTFSSYGMHWVRQAPGKGLEWVAVISYDGSNKYYADSVKGRFTISRDNSKNTLYLQMNSLRAEDTAVYYCASRSTVVPAAIFAFDIWGQGTMVTVSS
VL: not shown
For B3, the dissociation constant (Kd) came out at 42.3 nM.

B4: ZDY95 Fab (Fab, V domains shown)
VH: EVQLVQSGGGVVQPGRSLRLSCAASGFTFSSYGMHWVRQAPGKGLEWVAVISYDGSNKYYADSVKGRFTISRDNSKNTLYLQMNSLRAEDTAVYYCASRSTVVPAAIFAFDIWGQGTMVTVSS
VL: not shown
For B4, the dissociation constant Kd was determined as 26.2 nM.
